Results reported in patent publication US20210139581A1 (Alector, published 2021).
Residue numbers refer to the chain shown, from its start. Read-outs that look alike come from different tables or passages of the source. Blank lines part the entries; values can stand above or below the binder they belong to.

Assays:
[1] = molecular target: T1, human CD33 (human, UniProt P20138 18-259, limits assumed); experiment: BLI (ForteBio), Fab 100 nM on immobilized CD33
T1 construct: Human CD33 immobilized on the BLI sensor tip or the BIAcore C1 chip; also called Siglec-3
T1 sequence (P20138 18-259 limits assumed): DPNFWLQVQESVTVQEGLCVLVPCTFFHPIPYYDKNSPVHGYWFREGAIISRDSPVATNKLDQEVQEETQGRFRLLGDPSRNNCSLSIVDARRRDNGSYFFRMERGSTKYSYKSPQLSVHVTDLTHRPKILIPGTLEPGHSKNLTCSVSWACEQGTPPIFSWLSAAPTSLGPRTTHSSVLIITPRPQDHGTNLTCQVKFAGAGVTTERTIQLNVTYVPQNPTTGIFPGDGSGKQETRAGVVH

[2] = molecular target: T1, human CD33; experiment: BLI (ForteBio), Fab 100 nM on immobilized CD33; kon/koff columns printed 3 rows too low, assigned by koff/kon = printed KD of AB-63.4
Procedure: (§1) The affinities (KD) of the humanized antibodies for human CD33 were measured for each antibody by BioLayer Interferometry in a ForteBio assay according to standard techniques (Estep et al. (2013) MAbs 5(2): 270-8). […] The assay was carried out at room temperature.
(§2) The affinities of AB-H14 and its affinity-matured variants (Table 15) and AB-H63 and its affinity-matured variants (Table 16), for human CD33 were measured by Fortebio assay according to the method described in Example 1 above.

[3] = molecular target: T2, human CD33 on primary human monocyte-derived dendritic cells (human, UniProt P20138 18-364); experiment: cell-based or functional assay
T2 sequence (P20138 18-364): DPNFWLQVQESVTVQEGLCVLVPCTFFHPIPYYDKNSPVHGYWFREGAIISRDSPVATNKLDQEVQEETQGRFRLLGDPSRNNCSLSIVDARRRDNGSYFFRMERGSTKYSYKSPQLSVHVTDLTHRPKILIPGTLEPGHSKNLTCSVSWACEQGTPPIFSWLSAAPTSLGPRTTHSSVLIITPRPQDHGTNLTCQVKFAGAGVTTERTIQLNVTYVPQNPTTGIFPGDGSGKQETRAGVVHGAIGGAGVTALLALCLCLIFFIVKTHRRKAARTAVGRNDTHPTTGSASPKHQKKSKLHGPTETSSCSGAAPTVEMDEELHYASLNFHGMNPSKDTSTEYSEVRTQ

[4] = molecular target: T2, human CD33 on primary human …; experiment: cell-based or functional assay; remark: listed apart in the source
[5] = molecular target: T2, human CD33 on primary human …; experiment: cell-based or functional assay; remark: listed apart in the source
[6] = molecular target: T1, human CD33; experiment: BLI (ForteBio), Fab 100 nM on immobilized CD33; remark: listed apart in the source
Procedure: as §1
The affinity parameters of two of the antibodies, 64.1.2 and 64.1.8, were measured in a separate experiment by BIAcore, where they were directly compared to the parental antibody, AB-64.1, the parental humanized antibody, AB-H64, and the Chimeric Ab.

[7] = molecular target: T2, human CD33 on primary human …; experiment: cell-based or functional assay; remark: listed apart in the source
[8] = molecular target: T1, human CD33; experiment: ligand-blocking red blood cell solid adhesion assay: antibody pre-incubated on plate-bound CD33-Fc, then binding of red blood cells (sialic acid-containing CD33 ligands) read as peroxidase activity (TMB, 450 nm), relative to no antibody; blocked ligand: CD33 ligands on red blood cells
Procedure: The affinity matured antibody, AB-64.1 and two of its variants, AB-64.1.2 and AB-64.1.8, were evaluated for their ability to compete with CD33 ligand for binding to CD33 using a red blood cell (RBC) solid adhesion assay, according to standard protocols (Kelm, et al. Current Biology, 1994). Red blood cells are highly decorated with glycoproteins containing sialic acids; therefore the ability of an antibody to block RBC binding to immobilized CD33 was used to determine ligand interference. Briefly, 96-well Immunolon plates were coated overnight with 5 μg/mL CD33-Fc, then were washed with PBS and blocked for one hour with binding buffer (PBS containing 0.25% BSA and 1 mM CaCl₂)). CD33 antibodies were added and incubated for one hour at room temperature with gentle rocking. After removal of unbound antibody, RBCs were added to each well at 3.0×10⁶ cells/mL and incubated at room temperature for one hour. Unbound RBCs were then carefully removed by washing three times with PBS, after which water was added to each well to induce hypotonic lysis of bound RBCs. The plate was transferred to −80° C. for 10 minutes, followed by 37° C. for 15 minutes. Quantification of bound RBCs was measured as peroxidase activity by adding TMB, followed by the addition of 2N sulfuric acid to stop the reaction. Signal was detected at 450 nm. Data was calculated as a percentage of RBC binding to plate-bound CD33-Fc in the absence of antibody.

[9] = molecular target: T1, human CD33; experiment: SPR (BIAcore), Fab over CD33 on C1 chip
Procedure: The affinity parameters for 10 of the 88 humanized antibodies (AB-H1, AB-H3, AB-H6, AB-H11, AB-H22, AB-H24, AB-H26, AB-H63, AB-H64, and AB-H71) were measured in a separate experiment by a more sensitive technique, surface plasmon resonance (BIAcore), and compared to Chimeric Ab and Chimeric Ab #2. BIAcore measurements were performed as follows: human CD33 was immobilized on the surface of a C1 chip, and Fabs were injected for 300 s to monitor association, followed by a 900 s flow in running buffer to monitor dissociation. The Fabs were measured at 5 concentrations: a high concentration of 27 nM and 3-fold serial dilutions.
In a separate experiment, as determined by the more sensitive BIAcore technique, affinity parameters of affinity matured antibodies derived from the humanized antibody AB-H64 were measured and were directly compared to that of the Chimeric Ab, according to the method described in Example 1 above.

[10] = molecular target: T1, human CD33; experiment: BLI (ForteBio), Fab 100 nM on immobilized CD33; kon/koff columns printed 3 rows too low, assigned by koff/kon = printed KD of AB-63.5
Procedure: as §1, §2

[11] = molecular target: T1, human CD33; experiment: BLI (ForteBio), Fab 100 nM on immobilized CD33; kon/koff columns printed 3 rows too low, assigned by koff/kon = printed KD of AB-63.7
Procedure: as §1, §2

[12] = molecular target: T1, human CD33; experiment: BLI (ForteBio), Fab 100 nM on immobilized CD33; kon/koff columns printed 3 rows too low, assigned by koff/kon = printed KD of AB-63.9
Procedure: as §1, §2

[13] = molecular target: T1, human CD33; experiment: BLI (ForteBio), Fab 100 nM on immobilized CD33; kon/koff columns printed 3 rows too low, assigned by koff/kon = printed KD of AB-63.11
Procedure: as §1, §2

[14] = molecular target: T1, human CD33; experiment: BLI (ForteBio), Fab 100 nM on immobilized CD33; remark: listed apart in the source
Procedure: as §1
The affinities of AB-H64 and its variants (Table 5) for human CD33 were measured by Fortebio assay according to the method described in Example 1 above.

[15] = molecular target: T2, human CD33 on primary human …; experiment: cell-based or functional assay; remark: listed apart in the source
[16] = molecular target: T1, human CD33; experiment: BLI (ForteBio), Fab 100 nM on immobilized CD33; kon/koff columns printed 3 rows too low, assigned by koff/kon = printed KD of AB-63.6
Procedure: as §1, §2

[17] = molecular target: T1, human CD33; experiment: BLI (ForteBio), Fab 100 nM on immobilized CD33; kon/koff columns printed 3 rows too low, assigned by koff/kon = printed KD of AB-63.8
Procedure: as §1, §2

[18] = molecular target: T1, human CD33; experiment: BLI (ForteBio), Fab 100 nM on immobilized CD33; kon/koff columns printed 3 rows too low, assigned by koff/kon = printed KD of AB-63.10
Procedure: as §1, §2

Receptor downregulation (% remaining at 0.16 µg/mL antibody) [4]: 32.4%
Maximal Downregulation (% CD33 remaining) [5]: 24.8%
Receptor downregulation (EC50) [5]: 18.9 pM
Kd [6]: 902 pM
fold increase in potency in decreasing cell surface CD33, against AB-H64 [7]: 1.5 fold
fold increase in potency in decreasing cell surface CD33, against Chimeric Ab [7]: 4.6 fold
EC50 [8]: 550 pM
Fold Change to AB-H64 [9]: 11.6 fold
Fold Change to Chimeric Ab [9]: 8.8 fold
Kd [9]: 185 pM
koff [9]: 0.000507 s⁻¹
kon [9]: 2.74e+06 M⁻¹ s⁻¹
B2: AB-64.1.2 (antibody, V domains shown)
VH: QVQLVQSGAEVKKPGASVKISCKASGYTFTDYNLHWVRQAPGQGLEWIGFIYPSNRITGYAQKFQGRATLTVDNSTSTAYMELSSLRSEDTAVYYCARSDVDYFDYWGQGTLLTVSS
VL: DIVLTQSPDSLAVSLGERATINCRASQSVSTSTYSYMHWYQQKPGQPPKLLIKYASNLESGVPDRFSGSGSGTDFTLTISSLQAEDVAVYYCQHSWEIPLTFGQGTKLEIK
notes: Variant of AB-64.1

Fold affinity improvement over parental Ab (AB-H63) [1]: 4.4 fold
Kd [1]: 619 pM
koff [10]: 0.000524 s⁻¹
kon [10]: 847000 M⁻¹ s⁻¹
Maximal Downregulation (% CD33 remaining) [3]: 16.5%
Receptor downregulation (EC50) [3]: 40.1 pM
B3: AB-63.5 (antibody, V domains shown)
VH: B2 VH with I20V, L34N, R56G, A68V, L70M, N74T, A79V, L113V
VL: B2 VL

Fold affinity improvement over parental Ab (AB-H63) [1]: 8.96 fold
Kd [1]: 304 pM
koff [16]: 0.0002 s⁻¹
kon [16]: 658000 M⁻¹ s⁻¹
Maximal Downregulation (% CD33 remaining) [3]: 17.1%
Receptor downregulation (EC50) [3]: 46.3 pM
B9: AB-63.6 (antibody, V domains shown)
VH: B2 VH with I20V, R56G, A68V, L70M, N74T, A79V, D100T, L113V
VL: B2 VL with S28D

Fold affinity improvement over parental Ab (AB-H63) [1]: 12.4 fold
Kd [1]: 219 pM
koff [17]: 0.0002 s⁻¹
kon [17]: 913000 M⁻¹ s⁻¹
Maximal Downregulation (% CD33 remaining) [3]: 22%
Receptor downregulation (EC50) [3]: 16.7 pM
B10: AB-63.8 (antibody, V domains shown)
VH: QVQLVQSGAEVKKPGSSVKVSCKASGVTFTDYNYHWVRQAPGQGLEWIGFIYPSNGITGYAQKFQDRVTMTVDTSTSTVYMELSSLRSEDTAVYYCARSTVDYFDYWGQGTLVTVSS
VL: B2 VL with S28D

The remaining lines, values behind:

B1: AB-63.4 (antibody, V domains shown)
VH: B10 VH with S16A, V27Y, D66G
VL: B2 VL
Fold affinity improvement over parental Ab (AB-H63) [1]: 3.79 fold
Kd [1]: 718 pM
koff [2]: 0.000581 s⁻¹
kon [2]: 809000 M⁻¹ s⁻¹
Maximal Downregulation (% CD33 remaining) [3]: 17.6%
Receptor downregulation (EC50) [3]: 69.1 pM

B4: AB-64.1.8 (antibody, V domains shown)
VH: B2 VH with R56Q, T76A
VL: B2 VL
notes: Variant of AB-64.1
Receptor downregulation (% remaining at 0.16 µg/mL antibody) [4]: 32.7%
Maximal Downregulation (% CD33 remaining) [5]: 30.1%
Receptor downregulation (EC50) [5]: 28.2 pM
Kd [6]: 802 pM
EC50 [8]: 620 pM
Fold Change to AB-H64 [9]: 12.3 fold
Fold Change to Chimeric Ab [9]: 9.29 fold
Kd [9]: 175 pM
koff [9]: 0.000634 s⁻¹
kon [9]: 3.62e+06 M⁻¹ s⁻¹

B5: AB-63.7 (antibody, V domains shown)
VH: B10 VH with S16A, V27Y, Y34L, D66G
VL: B2 VL with S28D, S56F, T101E
Fold affinity improvement over parental Ab (AB-H63) [1]: 2.97 fold
Kd [1]: 917 pM
koff [11]: 0.000546 s⁻¹
kon [11]: 596000 M⁻¹ s⁻¹
Maximal Downregulation (% CD33 remaining) [3]: 18.4%
Receptor downregulation (EC50) [3]: 41.6 pM

B6: AB-63.9 (antibody, V domains shown)
VH: B10 VH with S16A, V27Y, T28A, Y34L, D66G, T100D
VL: B2 VL with S28D, N57Y, Q93E
Fold affinity improvement over parental Ab (AB-H63) [1]: 10.1 fold
Kd [1]: 271 pM
koff [12]: 0.0002 s⁻¹
kon [12]: 738000 M⁻¹ s⁻¹
Maximal Downregulation (% CD33 remaining) [3]: 20.1%
Receptor downregulation (EC50) [3]: 40.7 pM

B7: AB-63.11 (antibody, V domains shown)
VH: B10 VH with S16A, V27Y, Y34F, S54A, F64D, D66G, T100D
VL: B2 VL with S28D
Fold affinity improvement over parental Ab (AB-H63) [1]: 7.09 fold
Kd [1]: 384 pM
koff [13]: 0.000322 s⁻¹
kon [13]: 839000 M⁻¹ s⁻¹
Maximal Downregulation (% CD33 remaining) [3]: 23%
Receptor downregulation (EC50) [3]: 44 pM

B8: AB-64.1 (antibody, V domains shown)
VH: B2 VH with R56G
VL: B2 VL
Fold affinity improvement over parental Ab (AB-H64) [14]: 3.23 fold
Kd [14]: 885 pM
Receptor downregulation (EC50) [15]: 18.5 pM
Receptor downregulation (% remaining at 0.16 µg/mL antibody) [4]: 37.2%
Maximal Downregulation (% CD33 remaining) [5]: 27.3%
Receptor downregulation (EC50) [5]: 15.4 pM
Kd [6]: 499 pM
EC50 [8]: 710 pM
Fold Change to AB-H64 [9]: 20.4 fold
Fold Change to Chimeric Ab [9]: 15.4 fold
Kd [9]: 105 pM
koff [9]: 0.000485 s⁻¹
kon [9]: 4.61e+06 M⁻¹ s⁻¹

B11: AB-63.10 (antibody, V domains shown)
VH: B10 VH with S16A, V27Y, F29E, Y34L, D66G, T100D
VL: B2 VL with S28D, I98L
Fold affinity improvement over parental Ab (AB-H63) [1]: 5.84 fold
Kd [1]: 466 pM
koff [18]: 0.000336 s⁻¹
kon [18]: 721000 M⁻¹ s⁻¹
Maximal Downregulation (% CD33 remaining) [3]: 21.2%
Receptor downregulation (EC50) [3]: 41.8 pM
